The results in this text go back to patent US20220273710A1 (AUTOLUS, published 2022).

Sequences and labels used below:
T1: Recombinant purified CD79b (R&D systems) (human, UniProt P40259 29-159)
T1 construct: Bought protein
T1 sequence: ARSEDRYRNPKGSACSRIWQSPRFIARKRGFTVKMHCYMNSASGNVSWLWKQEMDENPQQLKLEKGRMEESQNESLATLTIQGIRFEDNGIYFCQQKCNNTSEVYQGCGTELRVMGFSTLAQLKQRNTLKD

B1: Polatuzumab (antibody, V domains shown)
VH: EVQLVESGGGLVQPGGSLRLSCAASGYTFSSYWIEWVRQAPGKGLEWIGEILPGGGDTNYNEIFKGRATFSADTSKNTAYLQMNSLRAEDTAVYYCTRRVPIRLDYWGQGTLVTVSS
VL: DIQLTQSPSSLSASVGDRVTITCKASQSVDYEGDSFLNWYQQKPGKAPKLLIYAASNLESGVPSRFSGSGSGTDFTLTISSLQPEDFATYYCQQSNEDPLTFGQGTKVEIKR
notes: polatuzumab'; also called humanised anti-CD79b 2F2; anti-CD79b antibody polatuzumab
B2: 3H2 (antibody, mouse IgG2a, V domains shown)
VH: AVQLVESGGGLVQPKESLKLSCAASGFTFSHTAMYWVRQAPGKGLECVARIRIQPKNYATYYADSVKGRFTISRDDSKSMVYLQMDNLKTEDTAMYYCTAAGFGFDYWGQGVMVTVSS
VL: DVVLTQTPVSLSVTLGDQASISCRSSQSLEYSDGNTYLEWYLQKPGQSPQLLIYEVSKRFSGVPDRFIGSGSGTDFTLKISRVEPEDLGIYYCLQATHDPFTFGSGTKLEIK
notes: also called 3H2 antibody; clone 3H2
B3: 2E8 (antibody, mouse IgG2a, V domains shown)
VH: AVQLVESGGGLVQPKESLKISCAASGFTFSNAAMYWVRQAPGKGLEWVARIRTKPNNYATNYADSVKGRFTISRDDSKSMVYLQMDNLKTEDTAMYYCTYYDGSSYAMDAWGQGTSVTVSS
VL: DVVLTQTPVSLSVTLGDQASISCRSSQSLEYSDGYTYLDWYLQKPGQSPQLLIYEVSNRFSGVPDRFIGSGSGTDFTLKISRVEPEDLGVYYCFQATHDPYTFGAGTKLEIK
notes: also called 2E8 antibody; clone 2E8
B4: 7G4 (antibody, mouse IgG2a, V domains shown)
VH: AVQLVESGGGLVQPKESLKISCAASGFTFSNAAMYWVRQAPGKGLEWVARIRTKPNNYATNYADSVKGRFTISRDDSKSMVYLQMDNLKTEDTAMYYCTYYDGSSYAMDAWGQGTSVTVSS
VL: DVVLTQTPVSLSVTLGDQASISCRSSQSLEYSDGYTYLDWYLQKPGQSPQLLIYEISNRFSGVPDRFIGSGSGTDFTLKISRVEPEDLGVYYCFQATHDPYTFGAGTKLEIK
notes: also called 7G4 antibody; clone 7G4

The target of the experiment is T1, Recombinant purified CD79b (R&D systems). The experiment can be described thus: SPR, Biacore 8K, antibody immobilised on CM5 chip, CD79b as analyte, 25° C, 1:1 Langmuir fit. The source says:
Recombinant anti-CD79b antibodies Polatuzumab and newly generated antibodies 2E8, 3H2, and 7G4 were immobilised on individual flow cells on a Series S CM5 sensor chip (GE Healthcare) to a density of 150-280 RU using a Biacore 8K instrument. HBS-P+buffer was used as running buffer under all experimental conditions. Recombinant purified CD79b (R&D systems) at known concentrations was used as the ‘analyte’ and injected over the respective flow cells with 150s contact time and 300s dissociation, at 30 μl/minute of flow rate and a constant temperature of 25° C. In each experiment, flow cell 1 was unmodified and used for reference subtraction. A ‘0 concentration’ sensorgram of buffer alone was used as a double reference subtraction to factor for drift. Data were fit to a 1:1 Langmuir binding model.
B1: the dissociation constant (Kd) came to 6.88 nM, the off-rate (koff) stood at 0.00806 s⁻¹ and the association rate constant (kon) turned out to be 1.17e+06 M⁻¹ s⁻¹.
Turning to B2, the Kd was 2.62 nM, the off-rate constant (koff) came out at 0.00431 s⁻¹ and the kon amounted to 1.64e+06 M⁻¹ s⁻¹.
For B3, in that order: 7.11 nM, 0.0805 s⁻¹ and 1.13e+07 M⁻¹ s⁻¹.
Turning to B4, the Kd was determined as 3.1 nM.
